Measurements as given in patent US20060241051A1 (Takeda / Millennium, published 2006).
Read-outs that look alike come from different tables or passages of the source. Numbered stars: 1 amine (or outer) side, 2 acyl side, 3 side chain; on linkers, the order of the positions; unused ones are H or OH. Square brackets hold non-standard residues; d marks the D form. Ends that are not written are not given here. * marks the point of attachment. Ala(2-Qui) = 2-quinolylalanine, O=C([C@H](Cc1ccc2ccccc2n1)N[*:1])[*:2]; Tyr(Me) = O-methyltyrosine, COc1ccc(C[C@H](N[*:1])C(=O)[*:2])cc1; Propanoyl(3-indol-3-yl) = O=C(CCc1c[nH]c2ccccc12)*; Phe(F5) = N[C@@H](Cc1c(F)c(F)c(F)c(F)c1F)C(=O)O; Arg(Me) = CNC(=N)NCCC[C@H](N)C(=O)O; Fmoc = O=C(OCC1c2ccccc2-c2ccccc21)*; Cha = N[C@@H](CC1CCCCC1)C(=O)O; azaGly = NNC(=O)O

B1: Compound No. 274: des(1-2)-Acetyl-[Ala3,AzaGly7,Arg(Me)9]MS10 (peptide)
peptide: Ac-ANSF[azaGly]L[Arg(Me)]F-NH2
SMILES: CNC(=N)NCCC[C@H](NC(=O)[C@H](CC(C)C)NC(=O)NNC(=O)[C@H](Cc1ccccc1)NC(=O)[C@H](CO)NC(=O)[C@H](CC(N)=O)NC(=O)[C@H](C)NC(C)=O)C(=O)N[C@@H](Cc1ccccc1)C(N)=O
B2: Compound No. 315: des(1)-[D-Asn2,Cha3,AzaGly7,Arg(Me)9]MS10 (peptide)
peptide: [dN][Cha]NSF[azaGly]L[Arg(Me)]F-NH2
modifications: N-terminus assumed
SMILES: CNC(=N)NCCC[C@H](NC(=O)[C@H](CC(C)C)NC(=O)NNC(=O)[C@H](Cc1ccccc1)NC(=O)[C@H](CO)NC(=O)[C@H](CC(N)=O)NC(=O)[C@H](CC1CCCCC1)NC(=O)[C@H](N)CC(N)=O)C(=O)N[C@@H](Cc1ccccc1)C(N)=O
B3: Compound No. 1: Metastin (peptide)
peptide: GTSLSPPPESSGSRQQPGLSAPHSRQIPAPQGAVLVQREKDLPNYNWNSFGLRF
B4: Compound No. 54: des(1-2)-Fmoc-MS10 (peptide)
peptide: Fmoc-WNSFGLRF-NH2
SMILES: CC(C)C[C@H](NC(=O)CNC(=O)[C@H](Cc1ccccc1)NC(=O)[C@H](CO)NC(=O)[C@H](CC(N)=O)NC(=O)[C@H](Cc1c[nH]c2ccccc12)NC(=O)OCC1c2ccccc2-c2ccccc21)C(=O)N[C@@H](CCCNC(=N)N)C(=O)N[C@@H](Cc1ccccc1)C(N)=O
B5: Compound No. 114: des(1-3)-3-(3-Indolyl)propionyl-MS10 (peptide)
peptide: {Propanoyl(3-indol-3-yl)}-NSFGLRF-NH2
SMILES: CC(C)C[C@H](NC(=O)CNC(=O)[C@H](Cc1ccccc1)NC(=O)[C@H](CO)NC(=O)[C@H](CC(N)=O)NC(=O)CCc1c[nH]c2ccccc12)C(=O)N[C@@H](CCCNC(=N)N)C(=O)N[C@@H](Cc1ccccc1)C(N)=O
B6: Compound No. 201: [Ala(2-Qui)10]MS10 (peptide)
peptide: YNWNSFGLR[Ala(2-Qui)]-NH2
modifications: N-terminus assumed
SMILES: CC(C)C[C@H](NC(=O)CNC(=O)[C@H](Cc1ccccc1)NC(=O)[C@H](CO)NC(=O)[C@H](CC(N)=O)NC(=O)[C@H](Cc1c[nH]c2ccccc12)NC(=O)[C@H](CC(N)=O)NC(=O)[C@@H](N)Cc1ccc(O)cc1)C(=O)N[C@@H](CCCNC(=N)N)C(=O)N[C@@H](Cc1ccc2ccccc2n1)C(N)=O
B7: Compound No. 203: [D-Tyr1,Cha6,Arg(Me)9]MS10 (peptide)
peptide: YNWNSXGLRF
modifications: D-Tyr1; Cha6; Arg(Me)9; C-terminal amide
notes: printed structure is the same as that of Compound No. 172
B8: Compound No. 224: des(1)-[D-Tyr2,D-Trp3,Arg(Me)9]MS10 (peptide)
peptide: [dY][dW]NSFGL[Arg(Me)]F-NH2
modifications: N-terminus assumed
SMILES: CNC(=N)NCCC[C@H](NC(=O)[C@H](CC(C)C)NC(=O)CNC(=O)[C@H](Cc1ccccc1)NC(=O)[C@H](CO)NC(=O)[C@H](CC(N)=O)NC(=O)[C@@H](Cc1c[nH]c2ccccc12)NC(=O)[C@H](N)Cc1ccc(O)cc1)C(=O)N[C@@H](Cc1ccccc1)C(N)=O

Experiments:
[1] = molecular target: human OT7T175 (metastin receptor) (human) (UniProt Q969F8); test: cell-based or functional assay
[2] = molecular target: T1, human OT7T175 (metastin receptor) (human, UniProt Q969F8 1-398); test: cell-based or functional assay
[3] = molecular target: T1, human OT7T175 (metastin receptor); test: FMAT competition with Cy-5-labeled metastin (40-54), hOT7T175-expressed CHO cells
[4] = molecular target: T1, human OT7T175 (metastin receptor); test: cell-based or functional assay; remark: listed apart in the source

T1 sequence (Q969F8 whole entry L364H): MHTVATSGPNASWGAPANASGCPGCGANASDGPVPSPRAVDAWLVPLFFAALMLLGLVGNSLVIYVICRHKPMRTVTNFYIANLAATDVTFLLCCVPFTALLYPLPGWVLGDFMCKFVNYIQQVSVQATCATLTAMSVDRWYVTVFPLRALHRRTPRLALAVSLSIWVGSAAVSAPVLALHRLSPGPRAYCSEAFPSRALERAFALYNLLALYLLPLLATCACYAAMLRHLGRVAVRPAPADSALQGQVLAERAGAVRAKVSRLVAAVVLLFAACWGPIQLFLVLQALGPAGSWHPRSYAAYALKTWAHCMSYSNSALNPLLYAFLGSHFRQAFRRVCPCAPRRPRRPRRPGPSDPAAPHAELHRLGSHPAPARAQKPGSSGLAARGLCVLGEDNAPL
Chain of human OT7T175 (metastin receptor) (human) (Q969F8 whole entry L364H): as above

Row | Binder | intracellular Ca ion level-increasing activity (FLIPR) (specific activity to metastin (1-54)) [1] | intracellular Ca ion level-increasing activity (FLIPR) [2] | IC50 [3] | intracellular Ca ion level-increasing activity (FLIPR) [4]
1 | B1 | 1 | – | – | –
2 | YNWNSFGARF-NH2 [Compound No. 45: [Ala8]MS10] | 1 | – | – | –
3 | B2 | 1 | – | – | –
4 | B3 | – | 1 specific activity to metastin (1-54) | – | –
5 | YN[dW]NSFGLRF-NH2 [Compound No. 40: [D-Trp3]MS10] | – | 30 specific activity to metastin (1-54) | – | –
6 | YNWNSFGLR[Tyr(Me)]-NH2 [Compound No. 18: [Tyr(Me)10]MS10] | – | 1 specific activity to metastin (1-54) | 7.7 nM | –
7 | YNWNLFGLRF-NH2 [Compound No. 24: [Leu5]MS10] | – | 1 specific activity to metastin (1-54) | 0.83 nM | –
8 | YNWNSFALRF-NH2 [Compound No. 50: [Ala7]MS10] | – | 30 specific activity to metastin (1-54) | 190 nM | –
9 | DNWNSFGLRF-NH2 [Compound No. 75: [Asp1]MS10] | – | 1 specific activity to metastin (1-54) | 880 nM | –
10 | YNWNSFSLRF-NH2 [Compound No. 101: [Ser7]MS10] | – | 10 specific activity to metastin (1-54) | 100 nM | –
11 | YNWNSFGLRY-NH2 [Compound No. 109: [Tyr10]MS10] | – | 20 specific activity to metastin (1-54) | 23 nM | –
12 | [dY]NWNSFGLRF-NH2 [Compound No. 42: [D-Tyr1]MS10] | – | 30 specific activity to metastin (1-54) | – | –
13 | Fmoc-NSFGLRF-NH2 [Compound No. 53: des(1-3)-Fmoc-MS10] | – | 1 specific activity to metastin (1-54) | – | –
14 | B4 | – | 5 specific activity to metastin (1-54) | 450 nM | –
15 | Fmoc-NWNSFGLRF-NH2 [Compound No. 55: des(1)-Fmoc-MS10] | – | 5 specific activity to metastin (1-54) | – | –
16 | YNWNSFGLXF (Har9; C-terminal amide) [Compound No. 97: [Har9]MS10] | – | 10 specific activity to metastin (1-54) | 370 nM | –
17 | YNWNSFGXRF (Nle8; C-terminal amide) [Compound No. 105: [Nle8]MS10] | – | 1 specific activity to metastin (1-54) | 880 nM | –
18 | YNWNSFGLRX (Pya(4)10; C-terminal amide) [Compound No. 17: [Pya(4)10]MS10] | – | 5 specific activity to metastin (1-54) | 0.0066 nM | –
19 | YNWNSFGLRX (Nal(2)10; C-terminal amide) [Compound No. 110: [Nal(2)10]MS10] | – | 20 specific activity to metastin (1-54) | 24 nM | –
20 | YNWNSFGLR[Phe(F5)]-NH2 [Compound No. 111: [Phe(F5)10]MS10] | – | 3 specific activity to metastin (1-54) | 140 nM | –
21 | YNWNSFGLRX (Cha10; C-terminal amide) [Compound No. 112: [Cha10]MS10] | – | 2 specific activity to metastin (1-54) | 370 nM | –
22 | B5 | – | 3 specific activity to metastin (1-54) | 550 nM | –
23 | B6 | – | – | 820 nM | 1 specific activity to metastin (1-54)
24 | B7 | – | – | 37 nM | 10 specific activity to metastin (1-54)
25 | [dY]WNSF[azaGly]L[Arg(Me)]F-NH2 [Compound No. 222: des(1)-[D-Tyr2,AzaGly7,Arg(Me)9]MS10] | – | – | 33 nM | 5 specific activity to metastin (1-54)
26 | B8 | – | – | 140 nM | 2 specific activity to metastin (1-54)
27 | LPNYNWNSFGLRF-NH2 [Compound No. 32: Leu-Pro-Asn-MS10] | – | 10 specific activity to metastin (1-54) | 25 nM | –
28 | [dY]NWNSF[azaGly]LR(Me)F-NH2 [Compound No. 232: [D-Tyr1,AzaGly7,Arg(Me)9]MS10] | – | – | 49 nM | 3 specific activity to metastin (1-54)
29 | [dY][dN]WNSF[azaGly]LR(Me)F-NH2 [Compound No. 237: [D-Tyr1,D-Asn2,AZaGly7,Arg(Me)9]MS10] | – | – | 27 nM | 3 specific activity to metastin (1-54)
